Patent publication US20250163138A1 (Alexion, published 2025)
Substitutions are numbered along the chain they refer to. Numbers in names are those of the source.

B1: CRL0483 (bispecific antibody)
chain: EVQLVESGGGLVQPGGSLRLSCAASGRTFSGILSPYAVGWFRQAPGKGLEFVSTITSGGSAIYTDSVKGRFTISRDNAKDSLYLQMNSLRAEDTAVYYCAVRTRRYGSNLGEVPQENEYGYWGQGTLVTVSSGGGGSGGGGSGGGGSEVQLLESGGGLVQPGGSLRLSCAASGFTFRSFGMSWVRQAPGKGPEWVSSISGSGSDTLYADSVKGRFTISRDNSKNTLYLQMNSLRPEDTAVYYCTIGGSLSRSSQGTLVTVSS
notes: anti-C5 VHH / (G4S)3 / anti-albumin VHH fusion, purified by Protein A; also called CRL0483 (C5/HSA)
B2: CRL0499 (bispecific antibody)
chain: EVQLLESGGGLVQPGGSLRLSCAASGFTFRSFGMSWVRQAPGKGPEWVSSISGSGSDTLYADSVKGRFTISRDNSKNTLYLQMNSLRPEDTAVYYCTIGGSLSRSSQGTLVTVSSGGGGSGGGGSGGGGSEVQLVESGGGLVQPGGSLRLSCAASGRAHSDYAMAWFRQAPGQEREFVAGIGWSGGDTLYADSVRGRFTNSRDNSKNTLYLQMNSLRAEDTAVYYCAARQGQYIYSSMRSDSYDYWGQGTLVTVSS
notes: anti-albumin VHH / (G4S)3 / anti-C5 VHH fusion, purified by Protein A; also called CRL0499 (HSA/C5)
B3: HAS020 (VHH)
VHH: QVQLVESGGGLVQAGGSLRLSCAASGRTFGSDAAGWFRQASGKEREFVASISWSGGYTYYADSVKGRFTISSDNVKNTVYLQMNSLTPEDTAVYFCATGNRYSDYRISLVTPSQYEYWGQGTLVTVSH
notes: anti-albumin VHH-His
B4: HAS081 (VHH)
VHH: B3 VHH with G30S, S50A, G56N, Y60S, T87K, F95L, T98A, L123Q
notes: anti-albumin VHH-His
B5: HAS091 (VHH)
VHH: B3 VHH with V64G, K65T, Y102D, L123Q
notes: anti-albumin VHH-His
B6: HAS093 (VHH)
VHH: B3 VHH with V64G, E116D, L123Q
notes: anti-albumin VHH-His
B7: HAS096 (VHH)
VHH: B3 VHH with I70S, G99V, L123Q
notes: anti-albumin VHH-His
B8: HAS038 (VHH)
VHH: QVQLVESGGGLVQPGGSLRLSCTGSGHSFSTYTVGWFRQAPGEERKFVASISWSGEVTLYGDSVKGRFTISRDNRKKTVYLQMHSLKPEDSAIYYCAAKRGGRPTDSSDDYFYWGQGTQVTVSS
notes: anti-albumin VHH-His
B9: HAS044 (VHH)
VHH: QVQLVESGGGLVQAGGSLRLSCAASGRTFSSYAIGWFRQAPGKAREFVARVSTIAGDTDYADSVKGRFTISRDNAKNTVYLQMNSLKPEDTAVYYCAADSYNVRLVTGEADYWGEGTQVTVSS
notes: anti-albumin VHH-His
B10: HAS077 (VHH)
VHH: B9 VHH with V106G
notes: anti-albumin VHH-His
B11: HAS079 (VHH)
VHH: B9 VHH with Q1E, G16D, R27F, S31N, D62N, S63A, E89D, D99E
notes: anti-albumin VHH-His
B12: HAS080 (VHH)
VHH: QVRLAESGGGRVQAGESLRLSCVASGRTFSNDAAGWFREASGKEREFVASISWSGNYTYYADSVKGRFTISEDNVKNTVYLQMTSLKPEDTAVYYCAAGNRYSDYRISLVTPRLYEYWGQGTQVTVSH
notes: anti-albumin VHH-His
B13: HAS040 (VHH)
VHH: QVQLNESGGGMVQAGGSLRLSCAASGRTVSNYAAGWFRQAPGKEREFVAAINWNKTTTYADSVKGRFIISREYAKNTVALQMNSLKPEDTAVYYCAAVFRIVAPKTQYEYDYWGQGTQVTVSS
notes: anti-albumin VHH-His; also called HAS40
B14: HAS041 (VHH)
VHH: QVQLIESGGGLVQAGGSLGLSCAASGRPVSNYAAAWFRQAPGKEREFVAAINWNKTATYADSVKGRFTISRDNAKSTVALQMNSLKPEDTAVYYCAAVFRVVAPKTQYDYDYWGQGTQVTVSS
notes: anti-albumin VHH-His; also called HAS41
B15: MSA21 VHH domain (VHH)
VHH: QVQLQESGGGLVQPGGSLRLSCEASGFTFSRFGMTWVRQAPGKGVEWVSGISSLGDSTLYADSVKGRFTISRDNAKNTLYLQMNSLKPEDTAVYYCTIGGSLNPGGQGTQVTVSS
notes: Published comparator (WO 2004/062551 A2); also called ADL021
B16: LCP0095 (VHH)
VHH: EVQLVESGGGLVQAGGSLRLSCTASGRTISTTVMAWFRQAPGKEREFVAADHWGDAGTVYADSVKGRFTISRDNAKNTVYLQMNYLKPEDTSVYYCAARPPTYVGTSRDSRAYDYWGQGTQVTVSS
notes: llama anti-C5 VHH, tested as VHH-His fusion; not shown: His-tag
B17: LCP0115 (VHH)
VHH: EVQLVESGGGLVQAGGSLRLSCAASGRTFSGILSPYAVGWFRQAPGKGREFVSTITSGGSAIYTDSVKGRFTLSRDNAKDTVYLQMNSLKPEDTAVYYCAVRTRRYGSNLGEVPQENEYGYWGQGTQVTVSS
notes: as for B16
B18: LCP0302 (VHH)
VHH: EVQLVESGGGLVQAGGSLRLSCAASGRTFSGILSAYAVGWFRQAPGKEREFVSTITSGGSTLSADSVKGRFTLSRDNAKDTVYLQMNSLKPEDTAVYYCAVRTWPYGSNRGEVPTENEYGHWGQGTQVTVSS
notes: as for B16
B19: LCP0123 (VHH)
VHH: EVQLVESGGGLVQAGGSLTLSCAMSGGTRPFEDYVMAWFRQATGKEREFVATITWMGETTYYKDSVNGRFAISRDNAENTVALQMNSLEPEDTAVYFCAAHSRSSFSTSGGRYNPRPTEYDYWGQGTQVTVSS
notes: as for B16
B20: LCP0136 (VHH)
VHH: EVQLVESGGGLVQPGESLRLSCAISGFAFTDVGMSWVRQAPGKGLEWVSSISSGSSITTYSDSVKGRFTISRDNARNTLFLQMNSLKPEDTAVYYCGRYYCTGLGCHPRRDSALWGQGTQVTVSS
notes: as for B16
B21: LCP0143 (VHH)
VHH: EVQLVESGGGLVQAGGSLRLSCAAPEMGATINVMAWYRQAPGKQRELVARLPLDNNIDYGDFAKGRFTISRDITRNTVYLQMNNLKPDDTAVYYCNVLLSRQINGAYVHWGQGTQVTVSS
notes: as for B16
B22: LCP0146 (VHH)
VHH: EVQLVESGGGLVQAGGSLRLSCAASGRAFSDYAMAWFRQAPGKEREFVAGIGWSGGDTLYADSVRGRFTNSKDNAKNRMSLQMNSLKPEDTAVYYCAARQGQYIYSSMRSDSYDYWGQGTQVTVSS
notes: as for B16
B23: LCP0296 (VHH)
VHH: EVQLVESGGGVVQAGDSLTLTCTAPVGTISDYGMGWFRQAPGKEREFVASISWGGMWTDYADSVKGRFTISRDNDKNAVYLRMNSLNAEDTAVYYCGRGRMYRGIGNSLAQPKSYGYWGQGTQVTVSS
notes: as for B16

The binders below were run against T1, cynomolgus monkey (cyno) complement protein C5 (cynomolgus monkey, UniProt A0A2K5U1T1 19-1676) (assay: SPR (Biacore), pH 6.0).
T1 construct: also called cC5; cyno C5

| Binder | Kd [nM] | koff [s⁻¹] | kon [M⁻¹ s⁻¹] |
| --- | --- | --- | --- |
| B1 | 1.25 | 4.62e-05 | 37100 |
| B2 | 2.02 | 0.00388 | 1.92e+06 |

What follows are binders tested against T2, human complement protein C5 (human, UniProt P01031 19-1676) (assay: SPR (Biacore), pH 6.0).
T2 construct: Native C5 is a two-chain protein made from one precursor; also called hC5; human C5

| Binder | Kd [nM] | koff [s⁻¹] | kon [M⁻¹ s⁻¹] |
| --- | --- | --- | --- |
| B1 | 5.27 | 0.000211 | 40000 |
| B2 | 0.448 | 0.00112 | 2.51e+06 |

Each binder was assayed against T3, human serum albumin (human, UniProt P02768 25-609) (assay: BLI (Octet HTX), VHH-His on Penta-His sensors, 100 nM albumin).
T3 construct: also called HSA; human albumin
Excerpt: VHH sequences were first analyzed by SDS-PAGE and Coomassie staining to determine approximate concentration relative to a known standard. Supernatant concentrations were then normalized and subjected to biolayer interferometry on an Octet HTX (Pall/ForteBio). Penta-His sensors were exposed to kinetics buffer for 60 seconds to establish baseline measurements. The sensors were then loaded with VHH-His containing supernatants for 300 seconds before a second baseline was established in kinetics buffer over 120 seconds. Tips were then incubated with 100 nM HSA or CSA in kinetics buffer for 600 seconds and dissociation measured over an additional 600 seconds.

| Binder | binding result |
| --- | --- |
| B3 | binds |
| B4 | binds |
| B5 | binds |
| B6 | binds |
| B7 | binds |
| B8 | binds |
| B9 | binds |
| B10 | binds |
| B11 | binds |
| B12 | binds |

Each binder was assayed against T1, cynomolgus monkey (cyno) complement … (assay: SPR (Biacore), pH 7.4).

| Binder | Kd [nM] | koff [s⁻¹] | kon [M⁻¹ s⁻¹] |
| --- | --- | --- | --- |
| B1 | 0.24 | 2.2e-05 | 91500 |

These binders were tested against T2, human complement protein C5 (assay: SPR (Biacore), pH 7.4).

| Binder | Kd [nM] | koff [s⁻¹] | kon [M⁻¹ s⁻¹] |
| --- | --- | --- | --- |
| B1 | 1.07 | 0.000242 | 225000 |
| B2 | 0.15 | 0.000332 | 2.22e+06 |

Each binder was assayed against T3, human serum albumin (assay: SPR (Biacore 3000), biotinylated albumin on CAP chip, pH 6.0).
Description: (§1) Biotinylated albumin was captured onto a CAP chip saturated with Biotin CAPture reagent containing deoxyribooligonucleotides (obtained from GE Healthcare). Concentrations of purified VHH domains were injected for 5 minutes at a flowrate of 50 μL/min. Three concentrations were assessed per VHH domain. Bound analyte was allowed to dissociate for 600 seconds. The chip surface was regenerated after each concentration by injecting 6 M guanidine HCl/0.25 M NaOH for 2 minutes at 10 μL/min. Kinetics were determined at pH 7.4 and pH 6.0 in HBS-EP buffer using a 1:1 Langmuir model (local Rₘₐₓ and constant RI) and double reference subtraction (subtraction of a buffer concentration cycle from the sample concentration cycle and subtraction of a parallel reference flow cell).

| Binder | Kd [nM] | koff [s⁻¹] | kon [M⁻¹ s⁻¹] |
| --- | --- | --- | --- |
| B13 | 0.466 | 0.000208 | 445000 |
| B14 | 1.04 | 0.000387 | 373000 |
| B15 | 5.46 | 0.00181 | 330000 |

Each binder was assayed against T4, Cynomolgus monkey serum albumin (cynomolgus monkey, UniProt A2V9Z4 25-608) in the same assay as above.
T4 construct: also called CSA; cynomolgus albumin
Description: as §1

| Binder | Kd [nM] | koff [s⁻¹] | kon [M⁻¹ s⁻¹] |
| --- | --- | --- | --- |
| B13 | 0.764 | 0.000281 | 368000 |
| B14 | 2.37 | 0.000739 | 312000 |
| B15 | 5.47 | 0.00153 | 280000 |

These binders were tested against T3, human serum albumin (assay: SPR (Biacore 3000), biotinylated albumin on CAP chip, pH 7.4).
Description: as §1

| Binder | Kd [nM] | koff [s⁻¹] | kon [M⁻¹ s⁻¹] |
| --- | --- | --- | --- |
| B13 | 0.341 | 0.00044 | 1.29e+06 |
| B14 | 0.461 | 0.000566 | 1.23e+06 |
| B15 | 3.49 | 0.00393 | 1.13e+06 |

Each binder was assayed against T4, Cynomolgus monkey serum albumin in the same assay as above.
Description: as §1

| Binder | Kd [nM] | koff [s⁻¹] | kon [M⁻¹ s⁻¹] |
| --- | --- | --- | --- |
| B13 | 0.539 | 0.000562 | 1.04e+06 |
| B14 | 1.15 | 0.00123 | 1.07e+06 |
| B15 | 3.85 | 0.00216 | 561000 |

These binders were tested against T1, cynomolgus monkey (cyno) complement … (assay: SPR (Biacore)).

| Binder | Kd [nM] | koff [s⁻¹] | kon [M⁻¹ s⁻¹] |
| --- | --- | --- | --- |
| B16 | 3.69 | 0.00168 | 456000 |
| B17 | 0.107 | 1.02e-05 | 95300 |
| B18 | 0.232 | 2.38e-05 | 103000 |
| B19 | 3.8 | 0.000381 | 100000 |
| B20 | 0.318 | 0.000251 | 789000 |
| B21 | 0.167 | 0.000124 | 741000 |
| B22 | 0.0922 | 0.000244 | 2.64e+06 |
| B23 | 1.55 | 0.000106 | 68400 |

Each binder was assayed against T2, human complement protein C5 (assay: SPR (Biacore)).

| Binder | Kd [nM] | koff [s⁻¹] | kon [M⁻¹ s⁻¹] |
| --- | --- | --- | --- |
| B16 | 2.5 | 0.000714 | 286000 |
| B17 | 0.309 | 3.48e-05 | 113000 |
| B18 | 0.195 | 2.22e-05 | 114000 |
| B19 | 1.99 | 0.000216 | 108000 |
| B20 | 1.81 | 0.000882 | 486000 |
| B21 | 0.082 | 5.66e-05 | 691000 |
| B22 | 0.0435 | 9.75e-05 | 2.24e+06 |
| B23 | 0.417 | 3.9e-05 | 93400 |
